According to patent US20220289857A1:
Where “and” joins values, the source holds several entries; their conditions need not be identical. Equal entries are not always repeated.

Legend:
[1] = target: human Fn14 (full length) on cells (human) (UniProt Q9NP84); test: cell-based or functional assay
[2] = target: cynomolgus macaque Fn14-GST (cynomolgus macaque (Macaca fascicularis)); test: SPR Biacore T200; cyno Fn14-GST captured by anti-GST, Fab analyte; average of two runs
[3] = target: His-SUMO-huFn14 (soluble human Fn14 aa 28-75 with N-terminal 6xHis-SUMO tag) (human); test: SPR Biacore T200; His-SUMO-huFn14 amine-coupled, Fab analyte; 1:1 fit
[4] = target: His-SUMO-huFn14 (soluble human Fn14 aa 28-75 with N-terminal 6xHis-SUMO tag) (human); test: SPR Biacore T200; His-SUMO-huFn14 amine-coupled, Fab analyte; average of two runs
[5] = target: cynomolgus macaque Fn14-GST (cynomolgus macaque (Macaca fascicularis)); test: SPR Biacore T200; cyno Fn14-GST captured by anti-GST, Fab analyte; 1:1 fit

Sequence of cynomolgus macaque Fn14-GST (cynomolgus macaque (Macaca fascicularis)) (chain, as listed by the source): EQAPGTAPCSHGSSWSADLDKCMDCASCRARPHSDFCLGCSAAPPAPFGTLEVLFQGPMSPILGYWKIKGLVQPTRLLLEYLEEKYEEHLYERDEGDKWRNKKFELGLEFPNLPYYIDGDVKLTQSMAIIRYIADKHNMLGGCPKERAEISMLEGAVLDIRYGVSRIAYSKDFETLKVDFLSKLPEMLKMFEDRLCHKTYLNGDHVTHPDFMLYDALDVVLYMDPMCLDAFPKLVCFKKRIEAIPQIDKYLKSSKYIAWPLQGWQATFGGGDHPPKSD
Sequence of His-SUMO-huFn14 (soluble human Fn14 aa 28-75 with N-terminal 6xHis-SUMO tag) (human) (chain, as listed by the source limits assumed): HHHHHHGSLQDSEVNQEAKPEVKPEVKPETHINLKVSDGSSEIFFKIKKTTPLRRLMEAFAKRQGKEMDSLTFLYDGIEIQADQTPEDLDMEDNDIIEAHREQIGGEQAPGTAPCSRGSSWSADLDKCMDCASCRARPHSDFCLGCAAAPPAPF
Sequence of human Fn14 (full length) on cells (human) (Q9NP84 28-129): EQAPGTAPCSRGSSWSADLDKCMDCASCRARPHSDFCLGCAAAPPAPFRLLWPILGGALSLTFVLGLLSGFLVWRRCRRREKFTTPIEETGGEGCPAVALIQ

Row | Substance | ICAM-1 MFI on HRMC, 250 ng/mL rhTWEAK, mAb 0.1 µg/mL [1] [MFI] | Kd [2] [nM] | Kd [3] | koff [3] | kon [3] | Kd [4] [nM] | Kd [5] | koff [5] | kon [5]
1 | mIgG2b isotype control antibody | 34700 | – | – | – | – | – | – | – | –
2 | ITEM-4 Fab (enzymatic digest) | – | 1.3 | 1.8 nM and 1.43 nM | 0.00304 s⁻¹ and 0.00279 s⁻¹ | 1.68e+06 M⁻¹ s⁻¹ and 1.94e+06 M⁻¹ s⁻¹ | 1.62 | 1.39 nM and 1.21 nM | 0.00118 s⁻¹ and 0.00202 s⁻¹ | 1.31e+06 M⁻¹ s⁻¹ and 1.68e+06 M⁻¹ s⁻¹
3 | mIgG1 isotype control antibody | 33300 | – | – | – | – | – | – | – | –
